Results published in the supplement of paper PMC9732359.
± gives the uncertainty stated by the source.

Assay: protein stability index of a GFP-peptide fusion (yeast GPS) (PSI 1-4); higher = more stable; sorted into four equal gates, so the index is relative within each strain
Outline: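 Tiled 17-residue peptides from yeast proteins were fused downstream of GFP on a plasmid that also expresses Cherry, and the pooled library was carried in yeast. Mid-log cultures grown in leucine-free medium were sorted into four equal gates by GFP/Cherry fluorescence ratio. Plasmids from each gate were PCR-amplified and Illumina-sequenced, and reads were assigned to strains by barcodes. Each peptide's protein stability index is the sum, over gates, of the gate's read frequency multiplied by its gate number.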

Row | Sequence | protein stability index (doa10∆) | protein stability index (pdr5∆) | protein stability index (san1∆) | protein stability index (ubr1∆)
1 | VKKAVTVHSKSRTRAHA [RPL19A] | 3.2 ± 0.1 | 3.2 ± 0.13 | 2.67 ± 0.12 | 3.16 ± 0.1
2 | KPSFSFGVPNSSKNETS [YLR335W/NUP2] | 2.13 ± 0.077 | 1.64 ± 0.082 | 2.46 ± 0.098 | 1.5 ± 0.059
3 | SENRDKFLQEFINLLLN [IRR1] | 2.53 ± 0.069 | 2.07 ± 0.083 | 2.43 ± 0.076 | 2.21 ± 0.069
4 | RIHAKNFEAALFAKSSS [GAL11] | 2.67 ± 0.086 | 2.54 ± 0.072 | 2.74 ± 0.099 | 2.56 ± 0.047
5 | NVEEEQIVPYIEKLTDG [BRR2] | 3.05 ± 0.061 | 3.06 ± 0.06 | 2.91 ± 0.071 | 3.2 ± 0.061
6 | ASLKHDNETKAMLINLI [RPN3] | 2.85 ± 0.28 | 3.21 ± 0.27 | 2.8 ± 0.13 | 2.77 ± 0.29
7 | GSLTFLDNKGSGEDAEE [YIL149C/MLP2] | 3.48 ± 0.27 | 3.22 ± 0.12 | 3.56 ± 0.12 | 3.46 ± 0.071
8 | TFDGKPTATPSPFRPLE [YMR153W/NUP53] | 3.02 ± 0.086 | 2.15 ± 0.087 | 2.38 ± 0.12 | 2.58 ± 0.071
9 | QRDLYKRKEELVSTLTT [SMC2] | 2.14 ± 0.073 | 1.91 ± 0.063 | 2.64 ± 0.071 | 1.82 ± 0.053
10 | DDRVDKKFVSQIQKNVD [POP3] | 3.22 ± 0.073 | 3.44 ± 0.12 | 3.29 ± 0.064 | 3.44 ± 0.051
11 | LAMEAILNELEVFIGRV [YJR042W/NUP85] | 2.59 ± 0.12 | 2.93 ± 0.14 | 2.76 ± 0.15 | 2.51 ± 0.06
12 | GGADQVTRTQQWSMVAQ [SWI1] | 3.15 ± 0.077 | 3.31 ± 0.075 | 3.03 ± 0.063 | 3.07 ± 0.052
13 | VLTRMDEDRSKKEEELG [SNF2] | 3.51 ± 0.11 | 3.22 ± 0.1 | 3.38 ± 0.071 | 3.27 ± 0.084
14 | QINPTRETNDDIWRVAG [SNF2] | 2.6 ± 0.064 | 2.26 ± 0.066 | 2.25 ± 0.069 | 2.14 ± 0.052
15 | GSAELRNSYPASFYSVN [RPN3] | 3.12 ± 0.21 | 3.15 ± 0.11 | 2.87 ± 0.059 | 3.55 ± 0.092
16 | SPSERIEPLEINIQSFK [BRR2] | 2.51 ± 0.064 | 2.53 ± 0.046 | 2.55 ± 0.047 | 1.97 ± 0.032
17 | ISVARKIYDAFPQTAML [DIS3] | 2.41 ± 0.098 | 2.4 ± 0.072 | 2.61 ± 0.14 | 2.36 ± 0.089
18 | HICGICGLMTVIAKLNH [RPB2] | 1.65 ± 0.077 | 1.33 ± 0.08 | 1.23 ± 0.14 | 1.43 ± 0.066
19 | WLAEKFQKETNMKVTIL [PRP28] | 2.81 ± 0.18 | 3.17 ± 0.11 | 3.27 ± 0.25 | 2.79 ± 0.11
20 | RMLSSILDINVSSSKNK [SWP82] | 2.71 ± 0.051 | 2.9 ± 0.051 | 2.49 ± 0.059 | 2.61 ± 0.032
21 | AQNQGMFGAKPAGTSLF [YGL172W/NUP49] | 2.32 ± 0.054 | 2.36 ± 0.064 | 2.34 ± 0.075 | 2.37 ± 0.04
22 | QLDEFKNKYLKDVLAQT [SWP82] | 2.52 ± 0.12 | 2.52 ± 0.15 | 2.4 ± 0.1 | 2.36 ± 0.057
23 | AYPGKLICPQYGTENKD [CSL4] | 1.89 ± 0.073 | 1.93 ± 0.068 | 1.72 ± 0.15 | 1.9 ± 0.078
24 | IYHGNHDVGELFWKVKE [PRE2] | 1.9 ± 0.063 | 1.95 ± 0.066 | 2.02 ± 0.084 | 2.45 ± 0.049
25 | KNYDATDKPFSSTQDVI [CSI1] | 2.37 ± 0.13 | 2.96 ± 0.1 | 2.85 ± 0.088 | 3.06 ± 0.086
26 | NSTNSNTTKPAFGGLNF [YJL041W/NSP1] | 3.29 ± 0.082 | 3.29 ± 0.09 | 3.14 ± 0.059 | 3.47 ± 0.076
27 | GRRISENGQRDLDRIAA [RPS19A] | 3.76 ± 0.25 | 3.42 ± 0.14 | 3.4 ± 0.064 | 3.45 ± 0.17

Row | Sequence | protein stability index (doa10∆) | protein stability index (pdr5∆) | protein stability index (san1∆) | protein stability index (ubr1∆)
28 | LDSLMKTTRLLLIIRSL [YJL039C/NUP192] | 1.63 ± 0.044 | 1.39 ± 0.039 | 1.32 ± 0.077 | 1.27 ± 0.04
29 | LVTPKSFLFDVLKTLEY [NUT1] | 2.91 ± 0.18 | 2.98 ± 0.18 | 3.1 ± 0.15 | 2.92 ± 0.18
30 | VTHMDQIFVRGSQIKFI [SMD3] | 2.55 ± 0.13 | 2.67 ± 0.14 | 2.17 ± 0.13 | 2.04 ± 0.067
31 | DASPDSLEALIDLCHDF [YCS4] | 2.81 ± 0.055 | 2.9 ± 0.047 | 2.86 ± 0.054 | 2.86 ± 0.041
32 | ASAGSKEGASTNWDDHA [YMR153W/NUP53] | 3.26 ± 0.13 | 3.49 ± 0.14 | 3.27 ± 0.077 | 3.42 ± 0.11
33 | SDWNPQADLQAMDRAHR [ISW2] | 2.93 ± 0.16 | 3.23 ± 0.12 | 3.14 ± 0.11 | 3.39 ± 0.18
34 | FESLYNSNDSVFVGSGK [BRR2] | 3.24 ± 0.098 | 3.18 ± 0.11 | 2.97 ± 0.13 | 3.15 ± 0.11
35 | IASMSTVRASSLQDLIY [SMC2] | 1.92 ± 0.069 | 2.33 ± 0.1 | 2.53 ± 0.092 | 2.25 ± 0.037
36 | RTFRLNECVCTPYNADF [RPO31] | 2.25 ± 0.045 | 2.4 ± 0.049 | 2.77 ± 0.054 | 2.28 ± 0.065
37 | TNVLNFIKLQKIDIIEL [FAS1] | 2.35 ± 0.042 | 1.94 ± 0.043 | 1.91 ± 0.075 | 2.05 ± 0.044
38 | KVSAREKSAYKFFHNGM [FAS2] | 3.5 ± 0.14 | 3.39 ± 0.14 | 3.35 ± 0.099 | 3.54 ± 0.13
39 | EQKLIDQHVINILWAIY [YCS4] | 1.87 ± 0.042 | 2.28 ± 0.04 | 1.93 ± 0.053 | 1.68 ± 0.035
40 | LGWIHTQTEELKFMAAS [PRP8] | 2.59 ± 0.087 | 2.62 ± 0.077 | 2.64 ± 0.063 | 2.71 ± 0.063
41 | SKIFRFQNSKSASLFKQ [RPL24A] | 2.63 ± 0.097 | 3.04 ± 0.085 | 2.54 ± 0.096 | 2.1 ± 0.073
42 | EEEKSVDASPNDVTRRT [CSL4] | 3.25 ± 0.08 | 3.33 ± 0.085 | 3.27 ± 0.05 | 3.44 ± 0.065
43 | EHFLKLNIDFGSDKQMF [YML103C/NUP188] | 2.61 ± 0.075 | 2.59 ± 0.07 | 2.26 ± 0.1 | 3.16 ± 0.061
44 | QNKLFYITNADDSTKFQ [SIR3] | 2.96 ± 0.085 | 3.02 ± 0.084 | 3.01 ± 0.078 | 3.27 ± 0.067
45 | TKSGATTSEKQEVTNEA [GAL11] | 2.99 ± 0.28 | 3.52 ± 0.19 | 2.9 ± 0.28 | –
46 | NIGETAGVVQDIGSDPT [RPB9] | 2.77 ± 0.089 | 3.25 ± 0.085 | 2.72 ± 0.11 | 2.92 ± 0.056
47 | VKSVNDPSQNRLTGSLL [RPC37] | 3.16 ± 0.089 | 3.48 ± 0.11 | 3.04 ± 0.11 | 3.08 ± 0.048
48 | SVYGLDDISRQVARTNL [ROX3] | 2.06 ± 0.058 | 2.7 ± 0.059 | 1.96 ± 0.1 | 2.94 ± 0.046
49 | RAFTKKVSSASAAASES [RPL16B] | 2.42 ± 0.065 | 2.19 ± 0.052 | 2.16 ± 0.065 | 1.85 ± 0.054
50 | ETSGVTTALLKDEEIEK [MED8] | 3.2 ± 0.097 | 3.05 ± 0.18 | 2.84 ± 0.17 | 3.63 ± 0.11
51 | GPAAAKPMAFSNTTTHV [MTR3] | 3.06 ± 0.08 | 3.28 ± 0.052 | 3.39 ± 0.05 | 3.27 ± 0.036
52 | TKWGLINYQVDSKLLPK [SWI3] | 2.8 ± 0.11 | 2.41 ± 0.12 | 1.92 ± 0.15 | 2.55 ± 0.077
53 | LGHKELKVRKGHIAKLM [RPB2] | 2.54 ± 0.066 | 2.53 ± 0.064 | 1.97 ± 0.1 | 2.72 ± 0.047
